Legend:
Test in all cases: IEDB peptide-MHC binding, purified MHC/competitive/radioactivity; filed as Kd, often an IC50 or EC50 that approximates it; ≥ and ≤ were set here for values at or beyond the usual limits of such assays
HLA-A*02:02 = target: HLA-A*02:02
HLA-A*02:03 = target: HLA-A*02:03
HLA-A*02:06 = target: HLA-A*02:06
[1] = source organism: Vaccinia virus WR
[2] = source organism: SARS coronavirus Tor2

Sequence | Kd (HLA-A*02:02; [1]) | Kd (HLA-A*02:03; [1]) | Kd (HLA-A*02:06; [1]) | other results
AAIDRQVSV | 933 nM | 18.6 nM | 14.9 nM | –
AIMAVGMVSI | – | – | – | Kd (HLA-A*02:03; source organism: Dengue virus 2 Jamaica/1409/1983): 58 nM
AMHDKKIDI | 17200 nM | 1520 nM | ≥ 42000 nM | –
ATLNTLITLI | 31.5 nM | 27.9 nM | 198 nM | –
CIVQSVLRDI | 218 nM | 158 nM | 849 nM | –
DAKRNSKSLV | 13300 nM | 2870 nM | ≥ 52100 nM | –
DINVIGLIV | 9800 nM | 4050 nM | 5530 nM | –
DLMSSKDDV | – | – | – | Kd (HLA-A*02:06; source organism: Homo sapiens): ≥ 132000 nM
DTDIVNNFIT | 8590 nM | 5590 nM | 2310 nM | –
FLITGVFDI | – | – | – | Kd (HLA-A*02:02; [2]): 0.686 nM; Kd (HLA-A*02:03; [2]): 0.765 nM; Kd (HLA-A*02:06; [2]): 1.48 nM
FLIVAALVFL | – | – | – | Kd (HLA-A*02:02; [2]): 3.02 nM; Kd (HLA-A*02:03; [2]): 162 nM; Kd (HLA-A*02:06; [2]): 3.64 nM
FTSDYPFYV | 2.07 nM | 3.91 nM | 3.58 nM | –
FTYASALWEI | – | – | – | Kd (HLA-A*02:02; [2]): 1.6 nM; Kd (HLA-A*02:03; [2]): 6.05 nM; Kd (HLA-A*02:06; [2]): 2.54 nM
FVKKMLPKII | 11100 nM | 1140 nM | 6710 nM | –
GLSQRHEEKV | – | – | – | Kd (HLA-A*02:06; source organism: Homo sapiens): ≥ 53800 nM
HTKFWISDNT | ≥ 21500 nM | ≥ 60200 nM | ≥ 69800 nM | –
ILNPYMPSVV | – | – | – | Kd (HLA-A*02:03; source organism: Dengue virus 1 Brazil/97-11/1997): 3.26 nM
ILRNYLRLYI | 0.394 nM | 0.895 nM | 65 nM | –
IQYRQQLELA | 4320 nM | 8470 nM | ≥ 69800 nM | –
ITNILGGVL | 7380 nM | 2440 nM | ≥ 32400 nM | –
ITPNNLNKI | 14600 nM | 876 nM | 409 nM | –
IVAAVIIMAI | 727 nM | 2610 nM | 4510 nM | –
IVDKFGKNHI | 2930 nM | 5080 nM | 8330 nM | –
IVTFINDYA | 140 nM | 2960 nM | 1150 nM | –
KIILFLTLI | – | – | – | Kd (HLA-A*02:02; [2]): 68.1 nM; Kd (HLA-A*02:03; [2]): 4.94 nM; Kd (HLA-A*02:06; [2]): 24.3 nM
KIYTLIYRQL | 707 nM | 1030 nM | 912 nM | –
KLISEKETL | 841 nM | ≥ 24700 nM | 7650 nM | –
KLRSSPPIPM | 57.6 nM | 134 nM | 2210 nM | –
KLTLKGMSYV | – | – | – | Kd (HLA-A*02:03; source organism: Dengue virus 1 Singapore/S275/1990): 53.4 nM

Source: the Immune Epitope Database (IEDB)
